Results reported in publication PMC11828871, “Structural basis of anticancer drug recognition and amino acid transport by LAT1” (Nature Communications, 2025).

Columns and labels:
[1] = molecular target: T1, CD98hc (4F2hc; SLC3A2) (human, UniProt P08195); test: cryo-EM structure; LAT1–CD98hc in lipid nanodiscs (POPC:POPG:cholesterol 2:2:1, MSP2N2) complexed with Fab170, gel filtration; SEC buffer 20 mM Tris-HCl pH 9.0, 150 mM NaCl; with JPH203, L-Phe, melphalan, BCH, T3 or no ligand; details: both partners purified
T1 construct: CD98hc (4F2hc; SLC3A2), human, single membrane-spanning protein; The complex was purified by GFP-nanotrap and a FLAG-tag purification step was skipped; The TMD-only models hold only TM1' of CD98hc

[2] = molecular target: T2, LAT1–CD98hc heterodimeric complex (human, UniProt Q01650;P08195); test: as above; details: both partners purified
T2 construct: LAT1 (SLC7A5), human; as the chain of m1; CD98hc (4F2hc; SLC3A2), human; as the chain of m2
T2 sequence (Q01650 whole entry, chain 1 of 2): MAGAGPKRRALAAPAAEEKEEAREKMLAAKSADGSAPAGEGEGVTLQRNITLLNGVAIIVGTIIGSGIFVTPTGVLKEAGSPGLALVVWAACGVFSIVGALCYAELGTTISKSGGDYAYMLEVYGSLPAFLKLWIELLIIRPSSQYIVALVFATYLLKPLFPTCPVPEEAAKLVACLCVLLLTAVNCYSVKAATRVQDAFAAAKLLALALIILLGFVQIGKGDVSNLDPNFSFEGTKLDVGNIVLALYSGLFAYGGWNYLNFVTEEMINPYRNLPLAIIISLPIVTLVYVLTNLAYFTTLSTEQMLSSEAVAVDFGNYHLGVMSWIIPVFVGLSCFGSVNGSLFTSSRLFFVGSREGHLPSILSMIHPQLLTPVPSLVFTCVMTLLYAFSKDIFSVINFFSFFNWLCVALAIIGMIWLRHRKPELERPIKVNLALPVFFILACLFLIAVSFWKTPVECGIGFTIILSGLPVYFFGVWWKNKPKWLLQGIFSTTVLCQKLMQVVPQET
T2 sequence (P08195 102-630, chain 2 of 2): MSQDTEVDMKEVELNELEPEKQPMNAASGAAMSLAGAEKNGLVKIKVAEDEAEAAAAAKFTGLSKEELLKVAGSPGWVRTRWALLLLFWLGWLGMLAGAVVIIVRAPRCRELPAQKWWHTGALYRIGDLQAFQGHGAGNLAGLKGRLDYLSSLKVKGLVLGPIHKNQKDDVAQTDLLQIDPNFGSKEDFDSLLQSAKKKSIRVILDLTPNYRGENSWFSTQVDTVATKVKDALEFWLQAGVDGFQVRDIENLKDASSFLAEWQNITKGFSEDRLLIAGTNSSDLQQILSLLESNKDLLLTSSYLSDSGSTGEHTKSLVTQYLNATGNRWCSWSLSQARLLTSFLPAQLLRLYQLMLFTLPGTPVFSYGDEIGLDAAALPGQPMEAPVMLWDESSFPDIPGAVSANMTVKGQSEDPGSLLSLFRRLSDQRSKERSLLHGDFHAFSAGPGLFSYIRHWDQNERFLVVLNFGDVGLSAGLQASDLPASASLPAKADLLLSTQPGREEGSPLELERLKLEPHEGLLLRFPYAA

T1 sequence (P08195 102-630): as the sequence (P08195 102-630, chain 2 of 2) above

B1: Fab fragment from clone 170 (Fab170) (Fab, V domains shown)
VH: EVQLQQSGAELVKPGASVNLSCKASGYTFTNYWMHWVRLRPGQGLEWIGEIDPSDSYSYYSQNFKGKATLTVDQSSNTAYLQLTSLTSEDSAVYYCARGRQTYYPWFPYWGQGTLVTVSA
VL: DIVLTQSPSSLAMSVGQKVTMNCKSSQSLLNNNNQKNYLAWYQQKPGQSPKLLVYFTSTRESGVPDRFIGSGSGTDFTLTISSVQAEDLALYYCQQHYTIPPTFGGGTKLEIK
notes: Mouse monoclonal antibody raised against liposomes with purified LAT1–CD98hc; source: mouse hybridoma culture supernatant; IgG purified by Protein G column, digested by papain, Fab further purified on Protein A column
**Q.** What does the source list for B1?
**A.** binding result [1]: binds; binding result [2]: binds
